According to publication PMC5463187 (Nature microbiology, 2017):

B1: hRSV90 (human mAb, IgG) (antibody, V domains shown)
VH: EVQLVESGGGLVQPRRSLRLSCAASGFTFDDYTIHWVRQAPGKGLEWVSGITWNSGYIGYADSVKGRFTISRDNARNSLYLQMNSLRAEDTALYYCVRDAYVSGSDYYYYGLDVWGRGTLVTVSS
VL: EIVMTSSPATLSVSPGERVTLFCRASQSVISNLAWYQQKSGQAPRLLIYGASTRATGIPSRFSGSGSGTEFTLTISSLQSEDFAVYFCQQYNNWPLTFGGGTQVNVQ
notes: IgG1, kappa; also called mAb hRSV90
B2: hRSV61 (antibody, V domains shown)
VH: QVQLVQSGAELKKPGASVKVSCKASGYTFTNHGITWVRQAPGQGLEWMSWISGYNGNTQYAQKFQGRVTMTTDTSTRTAYMELRSLTSDDTAVYYCARDNGVVVGPPDYWGQGTLVTVSS
VL: DIQMTQSPSTLSASVGDRVTISCRASQSISSWLAWYQQKPGKPPKLLIYKASGLQTGVPSRFSGSGSGTEFTLTISSLQPDDFATYYCQYYHSLSAFGQGTKVEIK
notes: also called mAb hRSV61
B3: hRSV12 (antibody, V domains shown)
VH: QVQLVQSGAEVKKPGTSVRVSCKTSGYNFMNYGIYWVRQAPGQGLEWVGWISAYNGQTDRAQKFQGRVTMTTDISTNTGYMDLRSLRSDDTAVYFCARGPPVIAAVSLEYWGRGTLVTVSS
VL: EVVMTQSPLSLPVTLGQPASISCKSSQSLVHSNGDTYLNWFQQRPGQSPRRLIYKVSNRDSGVPDRFSGSGSGTDFTLKISRVETEDVGVYYCMQATHWPGSFGQGTKLEIK
B4: hRSV139 (antibody, V domains shown)
VH: QVQLVQSGAEVKKPGASVKVSCKASGYVFSNYGISWVRQAPGQGLEWMGWISAYNGNTEFAQKFQGRITMTTDTSTNTAYLEVRGLRSDDTAVYYCSRQSGVSGVPEFQDWGQGTLVTVSS
VL: QAVVTQSPLSLPVTLGQPASISCRSSQSLVYSNGDTYLSWFQQRPGQSPRRLIYKVSNRDSGVPDRFSASGSGTDFTLKISRVEAEDVGVYYCMQGTHWPPPTFGQGTRLEIK
notes: also called mAb hRSV139
B5: hRSV97 (antibody, V domains shown)
VH: EVQLVESGGTLVQPGRSLRLSCAASGFNFEEYAMHWVRQVPGKGLEWVARINWNGGIIGYADSVKGRFTISRDNAKKSLYLQMNSLRTDDSALYYCGKDVFWAVAGTGGPIDSWGQGTLVTVSS
VL: DIVMTQSPSSLSASIGDRVTISCRASRDISNYLAWYQQKSGKVPKLLIYAASTLESGVPSRFSGSGSGTDFTLTISSLQPEDVATYYCQNYNSAQMCSFGQGPSLEIK
notes: also called mAb hRSV97
B6: hRSV20 (antibody, V domains shown)
VH: QVQLVESGGGLVQPGRSLRLSCAASGFTFDDYAMHWVRQAPGRGLEWVSGISWNSGIAVYADSVKGRFTISRDNAKKSLYLQINSLRAEDTALYYCVKDNYASGSYSSYYYYYGLDLWGQGTLVTVSS
VL: EIVMTQSPATLSVSPGERATLSCRASQSIISNLAWYQQKPGQAPRLLIYGVSTRATGIPARFSGSGSDTEFTLSISSLQSEDFAVYYCQQYNNWPITFGQGTRLEIK
notes: also called mAb hRSV20

Legend:
[1] = target: T1, RSV strain A2 post-fusion F (Human respiratory syncytial virus …, UniProt P03420, strain); experiment: ELISA; details: both partners purified
T1 construct: source: HEK293, transfected, purified from culture supernatant (HiTrap Talon crude)

[2] = target: T2, RSV strain 18537 post-fusion F (Human respiratory syncytial virus …, UniProt P13843, strain); experiment: ELISA; details: both partners purified
T2 construct: also called RSV B 18537 (post); source: HEK293, transfected, purified from culture supernatant (HiTrap Talon crude)

[3] = target: RSV strain A2 pre-fusion F, single-chain triple mutant (SC-TM) construct (respiratory syncytial virus subgroup A …); experiment: cell-based or functional assay
[4] = target: RSV strain 18537 B pre-fusion F (Ds-Cav1) (Human respiratory syncytial virus …, UniProt P13843, stabilised); experiment: cell-based or functional assay

Binder | binding result [1] | binding result [2] | plaque-reduction neutralization of RSV A2 (IC50) [3] [µg/mL] | plaque-reduction neutralization of RSV 18537 B (IC50) [4] [µg/mL]
B1 | no binding (tested: 1 μg ml^−1) | no binding (tested: 1 μg ml^−1) | 0.004 | –
B2 | no binding (tested: 1 μg ml^−1) | no binding (tested: 1 μg ml^−1) | 0.09 | –
B3 | – | – | 0.176 | 0.126
B4 | no binding (tested: 1 μg ml^−1) | no binding (tested: 1 μg ml^−1) | 0.323 | –
B5 | no binding (tested: 1 μg ml^−1) | no binding (tested: 1 μg ml^−1) | 0.35 | –
B6 | no binding (tested: 1 μg ml^−1) | no binding (tested: 1 μg ml^−1) | 0.045 | –
